Assay results taken from the supplement of paper PMC9170038.

Tested on: MS2 coat protein
Test: apparent KD of MS2 coat protein; designed switch direction (-1 OFF switch, 1 ON switch): -1; higher = weaker reporter binding
Method in brief: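 Designed RNA switches sharing common flanks were transcribed on Illumina chips by stalled E. coli RNA polymerase. They were titrated with SNAP-549-labelled MS2 coat protein, from 0.7 or 1.5 nM doubling to 3 µM, in Tris-HCl pH 7.5 buffer with KCl, MgCl2, BSA, DTT, tRNA and Tween-20. Titrations ran without input, with 200 uM small-molecule ligand, or with an oligonucleotide input. The apparent KD of each design is the median over its clusters, after curve-fitting of normalised cluster fluorescence.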

[1] = Eterna round: R95, input ligand: FMN 200 uM
[2] = Eterna round: R95, input ligand: microRNA oligo, concentration not stated
[3] = Eterna round: R95, input ligand: none
[4] = input ligand: microRNA oligo, concentration not stated

| Sequence | apparent KD of MS2 coat protein (input ligand: FMN 200 uM) [nM] | apparent KD of MS2 coat protein (input ligand: none) [nM] | apparent KD of MS2 coat protein [1] [nM] | apparent KD of MS2 coat protein [2] [nM] | apparent KD of MS2 coat protein [3] [nM] | apparent KD of MS2 coat protein [4] [nM] |
| --- | --- | --- | --- | --- | --- | --- |
| AAAAAAAAAGUGAGGAUAUGCUCUACCUCGGUAGAGCAGAAGGCACAUGAGGAUCACCCAUGUGACUCCUCAUU [Omei Ex4B B25] (Eterna round: R97, puzzle: Brourd's mod of Exclusion 4) | 29.6 | 19.1 |  |  |  |  |
| AAAAAACAAGGAUAUACGAAGGAGGGUUAUCUUAAUUUUUGACAUGAGGAUCACCCAUGUAGAAGGUGUUAAAA [JR_Exclusion2_Sub011] (puzzle: Exclusion 2) |  |  | 571 | 202 | 156 |  |
| AAAAAACAAGGAUAUACGGAUGAAGAUUGUCUUAAUUUUUGACAUGAGGAUCACCCAUGUAGAAGGUGUUAAAA [JR_Exclusion2_Sub016] (puzzle: Exclusion 2) |  |  |  | 158 |  |  |
| AAAAAGGUAGGAUAUACGAAAAAAAAGGGUAGAAAAAAAACACAUGAGGAUCACCCAUGUAGAAGGACCAAAAA [salish99_ex2_r3_043] (puzzle: Exclusion 2) |  |  | 97.3 | 26.8 | 26.1 |  |
| AAAAAGUGAGGAUAUGCAUAAGGACCCGGGAGGGAAAUAAAACAUGAGGAUCACCCAUGUAGAAGGCGCAAAAA [Exclss2-II] (puzzle: Exclusion 2) |  |  | 17.2 | 16 | 15.7 |  |
| AAAACGUGAGCAGGAUAUGCAAUAAGAUCAGGUCUUCACAUGAGGAUCACCCAUGUAUAAGGGACGCAGAAGGGCUGAUAAAAG [Aesedat] (Eterna round: R96, puzzle: Exclusion NG 2) | 98.4 | 60.9 |  |  |  | 49.6 |
| AAAAGAACAUGAGGAUCACCCAUGUGAACCUUCGUUCGACCUCAGGAUAUCCGCCACCGUCCGCAGGAGAAGGGAGGUAAAAUA [Quraa] (Eterna round: R96, puzzle: Exclusion NG 3) | 169 | 58.8 |  |  |  | 45.6 |
| AAAAGAAGUGUUAGGAUAUGUGGAAGCAGAAAGACACAGAAGGAACAUGAGGAUCACCCAUGUGACCAAAGAAC [Maenonis] (puzzle: Brourd's mod of Exclusion 4) |  |  | 27.1 | 15.8 | 15.3 |  |
| AAAAGCCUAGGAUAUACUUGAGGAUCACCCAAGUAGGGUCGCAUGGACCCGUCCUCGUGUAGAAGGAGGAAAAG [Orreteceer] (Eterna round: R97, puzzle: Exclusion 3) | 108 | 46.7 |  |  |  |  |
| AAAAGGCUAGGAUAUACAUGAGGAUCACCCAUGUGUACUGGACAUGCGGUAUGCGGAUGUAGAAGGAGUAUAAA [Esrere] (puzzle: Exclusion 3) |  |  |  | 22.4 |  |  |
| AAAAGGUCAGGAUAUCGGCGCGGUUGGGAGGCAGGUCCGCGCGAGAAGGGACAUGAGGAUCACCCAUGUUAAAA [Excls4-III] (puzzle: Exclusion 4) |  |  |  | 20.7 |  |  |
| AAAAGUUAAGGAUAUACAGGGAGCCGCGGCGUCUGGCCGCAACAUGAGGAUCACCCAUGUAGAAGGUAGCCAAA [Maatmaso] (puzzle: Exclusion 2) |  |  | 61.5 | 20.6 | 30.5 |  |
| AAAAUGGCAGGAUAUACAUGAGGAUCACCCAUGUUCGUCUUUACAUGUAAAAUGCUCUGUAGAAGGGCCUCGAA [Quised] (Eterna round: R97, puzzle: Exclusion 3) | 47.1 | 21.9 |  |  |  |  |
| AAAAUGUAAGGAUAUAGCCGGAACAAAGGGUCAAUAACCGGCUAGAAGGUACAUGAGGAUCACCCAUGUAAGAA [Excls4-V] (puzzle: Exclusion 4) |  |  | 19.4 | 13.3 | 15.8 |  |
| AAAAUGUAAGGAUAUGGCCGGGACCCAGGGUUUGGACCCGGCUAGAAGGUACAUGAGGAUCACCCAUGUAAGAA [Excls4-VIII] (puzzle: Exclusion 4) |  |  |  | 16.1 |  |  |
| AAACAAAAGGCAGGAUAUCCUCGUCAACACCACAAGUCCACUCGGACAUGAGGAUCACCCAUGUAGGAGAAGGGCCAGAAAUAC [Bevearla] (Eterna round: R96, puzzle: Exclusion NG 2) | 88.8 | 19.6 |  |  |  | 17.5 |
| AAACACGGAGGAUAUGGUCACUAGGACAUGAGGAUCACCCAUGUGGGAGUGCUAGUGCUACCAGAAGGUUGAAGUC [Eternabot (L1) Solution 54] (Eterna round: R97, puzzle: Exclusion 5) | 66.6 | 76.1 |  |  |  |  |

| Sequence | apparent KD of MS2 coat protein (input ligand: FMN 200 uM) [nM] | apparent KD of MS2 coat protein (input ligand: none) [nM] | apparent KD of MS2 coat protein [1] [nM] | apparent KD of MS2 coat protein [2] [nM] | apparent KD of MS2 coat protein [3] [nM] | apparent KD of MS2 coat protein [4] [nM] |
| --- | --- | --- | --- | --- | --- | --- |
| AAACAGCGAGGAUAUGCAGACGCUCCUUCCUCACGUCAAGGACAUGAGGAUCACCCAUGUAGAAGGCGCACAAC [Isriteti] (Eterna round: R97, puzzle: Exclusion 2) | 116 | 76 |  |  |  |  |
| AAACCUGCCCAUGACCGCAAGCUUUUUGCUUGUCUUACCACAUGAGGAUCACCCAUGUGACAUGGGCUCCUUAUAAA [Usteorrila] (puzzle: Sensor v3, turn-off variant 2) |  |  | 12.7 | 9.84 | 11.5 |  |
| AAACCUUGUGUCAGGAUAUGCAGAGGGAACGCCAGGCAGAAGGGACAUGAGGAUCACCCAUGUACAUUUUAAAC [BmEX4 B.19] (Eterna round: R97, puzzle: Brourd's mod of Exclusion 4) | 487 | 39.2 |  |  |  |  |
| AAACGGCAGGGAGGAUAUGCUUACCUGGGUCGUCUUCAAACAUGAGGAUCACCCAUGUAGUCGACGCAGAAGGCCCUCAAAGCC [JL ViennaUCT Ontiis mod] (Eterna round: R96, puzzle: Exclusion NG 2) | 144 | 18.6 |  |  |  | 18 |
| AAAGAACUAGGAUAUCGCGCUACAGACAUGAGGAUCACCCAUGUAAUCGCAUGUCAAGUUUGAGAAGGAGUGAAGA [Usissodi] (puzzle: Exclusion 5) |  |  | 21.5 | 11.9 | 9.9 |  |
| AAAGAAGAGAGAAAAUAACACAUGAGGAUCACCCAUGUGAGAAGUUGAGGGUGAUACAGGCUUUUUGCUCGUCUUAU (puzzle: Sensor v3, turn-off variant 1) |  |  | 233 | 263 | 332 |  |
| AAAGAUCAAGGAUAUGCAACGGCACACAUGAGGAUCACCCAUGUGAUGUACGUUGUGUCGGCAGAAGGUGAGGGUC [JR_Ex5_Sub056] (Eterna round: R97, puzzle: Exclusion 5) | 13.8 | 14.3 |  |  |  |  |
| AAAGGACGAUUAGGAUAUUCGGUUCAAGGUAAAGAAGAAGGAAUCGUUCCAUACUUAACAUGAGGAUCACCCAUGUGGGUCUAG [Eternabot solution 38] (Eterna round: R96, puzzle: Exclusion NG 1) |  |  |  |  |  | 25.5 |
| AAAGUGUGAGGAUAUCCUGGGCUGGGCCGGGAGGUUCGGUUGGAGAAGGCACAUGAGGAUCACCCAUGUAACGG [Excls4-IX] (puzzle: Exclusion 4) |  |  |  | 57.1 |  |  |
| AAAUACAAGCAAAGAUCUUACAUGAGGAUCACCCAUGUGCUCGUCUUAUAAAGUACUAUCACGAAAGUGAUAGUACA [Sensor 3, v1 - 29] (puzzle: Sensor v3, turn-off variant 1) |  |  | 19.5 | 108 | 19.1 |  |
| AAAUAGCAUGAGGAUAUUGAACUGUAUUCAGUACGAGAAGGCAUGACAUGAGGAUCACCCAUGUUUUGUUGGGA [EX6 #5] (Eterna round: R97, puzzle: Exclusion 6) | 126 | 27 |  |  |  |  |
| AAAUAGGCAGGAUAUACAUGAGGAUCACCCAUGUAAAUUUUUCGUUUAACUUGAAUGUGUAGAAGGGCCAUAAA [Ex3 #54] (Eterna round: R97, puzzle: Exclusion 3) | 27.4 | 26.8 |  |  |  |  |
| AAAUAGGUAGGAUAUACAUGAGGAUCACCCAUGUGCUGCCGCGCGUCAAUCUCUUCACGUAGAAGGGCCCAGAC [Reveara] (Eterna round: R97, puzzle: Exclusion 3) | 13.1 | 14.1 |  |  |  |  |
| AAAUCACAUGAGGAUCACCCAUGUGAGGAUAUGAUACUAUGUACUUCGGUACAUAGUAUCAGAAGGCAUGUGGA [Ex1-3: 89] (Eterna round: R96, puzzle: Exclusion 1) | 43.1 | 29.5 |  |  |  | 22.6 |
| AAAUCACAUGAGGAUCACCCAUGUGAGGAUAUGAUACUAUGUACUUCGGUACAUAGUAUCAGAAGGCAUGUGGA [Ex1-3: 89] (puzzle: Exclusion 1) |  |  |  | 28.2 |  |  |
| AAAUCGUGAGGAUAUCCAAUAUAUGACAUGAGGAUCACCCAUGUUUCCACUCGUACCUCCGGAGAAGGCACAAUAA [Ex5 #75] (Eterna round: R97, puzzle: Exclusion 5) | 27.2 | 27.1 |  |  |  |  |
